Measurements published in the supplement of paper PMC10065799, “High-throughput profiling of sequence recognition by tyrosine kinases and SH2 domains using bacterial peptide display” (eLife, 2023).

What was measured:
Hck = Hck (UniProt P08631); assay: phosphorylation enrichment, bacterial display (enrichment ratio); higher = better substrate or ligand; peptides without Tyr show the background
EPHB2 = EPHB2 (UniProt P29323); assay: as above
Fer (mouse) = assay: as above
Fyn = Fyn (UniProt P06241); assay: as above
EPHB1 = EPHB1 (UniProt P54762); assay: as above
Fes = Fes (UniProt P07332); assay: as above
AncSZ = assay: as above
FGFR1 = FGFR1 (UniProt P11362); assay: as above
c-Abl (mouse) = assay: as above
FGFR3 = FGFR3 (UniProt P22607); assay: as above
Jak2 = Jak2 (UniProt O60674); assay: as above
c-Src = assay: as above
MERTK = MERTK (UniProt Q12866); assay: as above
c-Src SH2 = assay: SH2 binding enrichment of the phosphorylated peptide, bacterial display (enrichment ratio); higher = better substrate or ligand; peptides without Tyr show the background
SHP2-C SH2 = assay: as above
Grb2 SH2 = Grb2 SH2 (UniProt P62993); assay: as above
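For SH2 binding enrichment of the phosphorylated peptide, bacterial display in this document: peptide library displayed on the E. coli surface as eCPX fusions, selected cells deep-sequenced, score is each peptide's frequency after selection divided by its frequency in the input.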
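For phosphorylation enrichment, bacterial display in this document: 11-residue human phosphosite peptides and single-mutation variants displayed on the E. coli surface, counted by deep sequencing, each peptide's frequency after selection divided by its frequency in the unselected input library; frequency after pTyr selection over input frequency; kinase dosed for 20-30% of maximal phosphorylation in three min.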

Sequence of FGFR1 (P11362 whole entry, looked up): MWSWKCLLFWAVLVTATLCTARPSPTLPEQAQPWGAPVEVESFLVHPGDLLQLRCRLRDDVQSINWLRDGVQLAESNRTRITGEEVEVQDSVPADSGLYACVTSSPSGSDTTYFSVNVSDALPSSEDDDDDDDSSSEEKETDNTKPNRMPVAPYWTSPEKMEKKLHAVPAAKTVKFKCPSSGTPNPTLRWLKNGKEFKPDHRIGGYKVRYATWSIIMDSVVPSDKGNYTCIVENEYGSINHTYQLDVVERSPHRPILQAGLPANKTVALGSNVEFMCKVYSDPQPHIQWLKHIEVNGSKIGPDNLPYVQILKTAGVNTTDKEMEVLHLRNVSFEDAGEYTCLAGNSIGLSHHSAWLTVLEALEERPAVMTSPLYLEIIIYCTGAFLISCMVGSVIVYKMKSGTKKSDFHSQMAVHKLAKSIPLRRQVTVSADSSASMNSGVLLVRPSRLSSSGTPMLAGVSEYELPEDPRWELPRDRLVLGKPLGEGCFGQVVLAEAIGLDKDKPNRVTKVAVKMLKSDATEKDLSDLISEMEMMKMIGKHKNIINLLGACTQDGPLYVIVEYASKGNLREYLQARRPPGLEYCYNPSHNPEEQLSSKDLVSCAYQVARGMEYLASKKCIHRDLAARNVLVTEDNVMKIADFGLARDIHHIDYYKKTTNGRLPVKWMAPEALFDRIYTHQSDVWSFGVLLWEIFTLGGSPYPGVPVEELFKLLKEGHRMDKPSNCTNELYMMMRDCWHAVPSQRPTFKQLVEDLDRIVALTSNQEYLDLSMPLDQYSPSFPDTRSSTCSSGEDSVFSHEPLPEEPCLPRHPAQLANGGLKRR
Sequence of FGFR3 (P22607 whole entry, looked up): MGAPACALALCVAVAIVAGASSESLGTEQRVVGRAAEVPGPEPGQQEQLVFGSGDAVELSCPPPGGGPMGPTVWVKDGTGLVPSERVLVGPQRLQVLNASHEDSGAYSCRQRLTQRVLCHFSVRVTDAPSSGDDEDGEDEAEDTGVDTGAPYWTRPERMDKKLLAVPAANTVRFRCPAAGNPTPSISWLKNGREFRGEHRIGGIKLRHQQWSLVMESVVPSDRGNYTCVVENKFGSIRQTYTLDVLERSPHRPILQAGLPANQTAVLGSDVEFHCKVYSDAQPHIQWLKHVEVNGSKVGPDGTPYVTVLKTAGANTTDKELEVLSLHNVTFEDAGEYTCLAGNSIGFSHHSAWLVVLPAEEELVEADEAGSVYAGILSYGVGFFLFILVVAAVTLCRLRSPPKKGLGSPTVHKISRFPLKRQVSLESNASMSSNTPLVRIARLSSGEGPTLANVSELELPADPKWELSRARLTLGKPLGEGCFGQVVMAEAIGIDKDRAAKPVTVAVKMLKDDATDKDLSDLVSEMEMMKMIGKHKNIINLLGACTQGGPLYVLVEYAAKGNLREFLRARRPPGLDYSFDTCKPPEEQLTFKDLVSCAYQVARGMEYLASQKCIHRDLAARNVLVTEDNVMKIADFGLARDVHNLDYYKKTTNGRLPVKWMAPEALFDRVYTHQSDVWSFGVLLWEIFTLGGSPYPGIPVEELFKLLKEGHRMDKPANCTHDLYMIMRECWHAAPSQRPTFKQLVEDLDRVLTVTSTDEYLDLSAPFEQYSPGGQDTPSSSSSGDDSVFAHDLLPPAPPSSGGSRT
Sequence of Hck (P08631 whole entry, looked up): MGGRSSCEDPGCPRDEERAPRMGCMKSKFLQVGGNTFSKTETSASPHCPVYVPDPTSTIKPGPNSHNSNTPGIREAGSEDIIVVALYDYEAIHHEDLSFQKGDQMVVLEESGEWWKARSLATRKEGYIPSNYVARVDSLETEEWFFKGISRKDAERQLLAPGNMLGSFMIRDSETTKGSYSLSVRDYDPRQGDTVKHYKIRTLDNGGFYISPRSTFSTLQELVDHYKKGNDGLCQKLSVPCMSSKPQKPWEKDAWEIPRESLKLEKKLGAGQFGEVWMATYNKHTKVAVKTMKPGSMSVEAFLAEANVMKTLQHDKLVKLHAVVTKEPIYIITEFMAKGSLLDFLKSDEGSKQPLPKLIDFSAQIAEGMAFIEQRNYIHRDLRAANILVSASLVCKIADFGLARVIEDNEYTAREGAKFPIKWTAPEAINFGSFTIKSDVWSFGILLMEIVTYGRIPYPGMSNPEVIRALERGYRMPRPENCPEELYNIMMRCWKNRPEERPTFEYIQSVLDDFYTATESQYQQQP
Sequence of EPHB2 (P29323 whole entry, looked up): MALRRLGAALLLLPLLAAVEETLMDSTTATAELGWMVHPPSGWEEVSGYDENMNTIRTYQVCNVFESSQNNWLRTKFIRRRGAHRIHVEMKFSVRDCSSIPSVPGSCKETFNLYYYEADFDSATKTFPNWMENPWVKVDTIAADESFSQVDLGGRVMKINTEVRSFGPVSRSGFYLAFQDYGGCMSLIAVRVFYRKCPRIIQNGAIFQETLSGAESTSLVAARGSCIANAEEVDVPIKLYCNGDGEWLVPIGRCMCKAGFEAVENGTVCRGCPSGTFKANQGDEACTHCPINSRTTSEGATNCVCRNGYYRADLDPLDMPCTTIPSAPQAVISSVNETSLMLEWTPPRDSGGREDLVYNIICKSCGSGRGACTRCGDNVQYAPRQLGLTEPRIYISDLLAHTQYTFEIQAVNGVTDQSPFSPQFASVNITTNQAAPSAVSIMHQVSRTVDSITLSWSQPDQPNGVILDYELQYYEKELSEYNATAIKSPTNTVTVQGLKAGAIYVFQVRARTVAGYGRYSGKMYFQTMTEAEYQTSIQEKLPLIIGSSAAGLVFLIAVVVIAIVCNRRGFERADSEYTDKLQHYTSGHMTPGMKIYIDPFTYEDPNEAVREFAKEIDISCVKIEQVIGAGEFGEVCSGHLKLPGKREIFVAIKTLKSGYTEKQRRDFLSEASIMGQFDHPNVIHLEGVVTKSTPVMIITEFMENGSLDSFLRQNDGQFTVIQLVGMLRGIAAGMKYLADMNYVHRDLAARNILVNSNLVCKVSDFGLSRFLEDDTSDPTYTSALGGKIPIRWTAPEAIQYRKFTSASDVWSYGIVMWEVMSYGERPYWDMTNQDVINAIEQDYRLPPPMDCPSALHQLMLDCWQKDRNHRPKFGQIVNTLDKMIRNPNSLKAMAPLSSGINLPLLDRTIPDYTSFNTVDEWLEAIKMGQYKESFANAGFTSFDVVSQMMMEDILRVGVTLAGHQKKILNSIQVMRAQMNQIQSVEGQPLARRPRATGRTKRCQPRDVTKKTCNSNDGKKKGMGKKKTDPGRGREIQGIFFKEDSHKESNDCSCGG
Sequence of MERTK (Q12866 whole entry, looked up): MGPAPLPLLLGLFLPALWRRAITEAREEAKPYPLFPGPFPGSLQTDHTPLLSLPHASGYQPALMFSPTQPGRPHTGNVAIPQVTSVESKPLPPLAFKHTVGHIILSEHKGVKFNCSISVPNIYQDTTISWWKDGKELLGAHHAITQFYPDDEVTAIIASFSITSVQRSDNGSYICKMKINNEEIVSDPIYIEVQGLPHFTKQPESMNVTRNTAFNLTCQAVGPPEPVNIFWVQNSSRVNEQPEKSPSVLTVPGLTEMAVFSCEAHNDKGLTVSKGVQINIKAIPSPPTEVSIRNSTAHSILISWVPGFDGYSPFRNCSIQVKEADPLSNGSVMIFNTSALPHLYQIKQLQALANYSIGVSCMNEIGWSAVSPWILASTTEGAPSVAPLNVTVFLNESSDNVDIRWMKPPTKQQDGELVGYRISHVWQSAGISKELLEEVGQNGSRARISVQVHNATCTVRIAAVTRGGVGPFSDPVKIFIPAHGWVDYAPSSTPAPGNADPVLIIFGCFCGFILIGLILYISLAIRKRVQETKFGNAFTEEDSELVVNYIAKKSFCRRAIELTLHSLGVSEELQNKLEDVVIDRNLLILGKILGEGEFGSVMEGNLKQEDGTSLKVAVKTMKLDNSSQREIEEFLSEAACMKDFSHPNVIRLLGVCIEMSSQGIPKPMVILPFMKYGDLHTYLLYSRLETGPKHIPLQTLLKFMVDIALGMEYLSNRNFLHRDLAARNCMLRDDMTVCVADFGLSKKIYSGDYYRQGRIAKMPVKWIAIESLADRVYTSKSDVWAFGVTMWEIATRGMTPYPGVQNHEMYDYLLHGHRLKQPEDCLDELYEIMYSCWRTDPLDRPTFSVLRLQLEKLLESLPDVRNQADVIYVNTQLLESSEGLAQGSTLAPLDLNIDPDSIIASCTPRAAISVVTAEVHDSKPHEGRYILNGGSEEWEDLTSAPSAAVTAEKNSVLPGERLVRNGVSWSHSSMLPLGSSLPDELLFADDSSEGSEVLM
Sequence of Fes (P07332 whole entry, looked up): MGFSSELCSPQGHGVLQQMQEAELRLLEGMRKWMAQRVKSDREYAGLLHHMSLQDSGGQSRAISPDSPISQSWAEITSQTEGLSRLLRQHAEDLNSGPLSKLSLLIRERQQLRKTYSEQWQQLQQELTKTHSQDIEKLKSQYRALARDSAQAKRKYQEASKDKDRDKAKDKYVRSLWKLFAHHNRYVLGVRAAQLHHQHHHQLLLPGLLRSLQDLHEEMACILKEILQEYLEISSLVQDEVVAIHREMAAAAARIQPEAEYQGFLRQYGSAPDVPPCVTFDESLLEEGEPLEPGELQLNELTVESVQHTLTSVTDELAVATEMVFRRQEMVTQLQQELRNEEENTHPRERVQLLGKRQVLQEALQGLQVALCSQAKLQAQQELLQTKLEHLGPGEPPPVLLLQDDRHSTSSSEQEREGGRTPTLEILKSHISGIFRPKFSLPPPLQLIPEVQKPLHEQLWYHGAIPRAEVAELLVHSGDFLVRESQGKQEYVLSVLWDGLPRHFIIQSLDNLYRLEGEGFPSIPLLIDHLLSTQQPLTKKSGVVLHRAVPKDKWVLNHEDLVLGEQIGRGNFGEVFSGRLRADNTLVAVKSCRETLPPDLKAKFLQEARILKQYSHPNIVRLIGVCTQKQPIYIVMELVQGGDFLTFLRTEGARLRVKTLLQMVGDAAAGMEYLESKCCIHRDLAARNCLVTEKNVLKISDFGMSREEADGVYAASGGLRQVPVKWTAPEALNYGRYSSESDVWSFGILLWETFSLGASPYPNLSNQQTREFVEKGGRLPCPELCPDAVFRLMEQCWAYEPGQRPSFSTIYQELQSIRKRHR

Row | Sequence | SH2 binding enrichment (c-Src SH2) | SH2 binding enrichment (SHP2-C SH2) | SH2 binding enrichment (Grb2 SH2) | phosphorylation enrichment (Hck) | phosphorylation enrichment (EPHB2) | phosphorylation enrichment (Fer (mouse)) | phosphorylation enrichment (Fyn) | phosphorylation enrichment (EPHB1) | phosphorylation enrichment (Fes) | phosphorylation enrichment (AncSZ) | phosphorylation enrichment (FGFR1) | phosphorylation enrichment (c-Abl (mouse)) | phosphorylation enrichment (FGFR3) | phosphorylation enrichment (Jak2) | phosphorylation enrichment (c-Src) | phosphorylation enrichment (MERTK)
1 | AVAFLYYKSIG [ADGRL4_Y301_V300L] | 0.461 | 0.559 | 0.722 | 0.518 | 0.54 | 0.46 | 0.417 | 0.555 | 1.42 | 1.09 | 0.566 | 1.07 | 0.796 | 1.24 | 0.459 | 0.469
2 | CFTRQYTLPPG [HSPB1_Y142_K141Q] | 0.523 | 0.794 | 0.773 | 0.497 | 0.57 | 0.496 | 0.388 | 0.577 | 0.943 | 0.976 | 0.553 | 0.722 | 0.656 | 0.901 | 0.361 | 0.399
3 | CKLCQYFLDHL [ATRX_Y1849_Y1847C_YF] | 1.1 | 1.18 | 1.46 | 0.456 | 0.612 | 0.442 | 0.449 | 0.571 | 1.18 | 1.28 | 0.689 | 0.89 | 0.661 | 1.16 | 0.766 | 0.49
4 | CKLCQYYLDHL [ATRX_Y1849_Y1847C] | 1.39 | 1.67 | 1.54 | 0.437 | 0.419 | 0.423 | 0.515 | 0.673 | 0.779 | 0.795 | 0.579 | 0.593 | 0.613 | 0.806 | 1.57 | 0.419
5 | CNSFRYGGGGG [NPPA_Y151] | 0.586 | 1.29 | 0.692 | 0.349 | 0.552 | 0.488 | 0.439 | 0.35 | 0.766 | 0.857 | 0.389 | 0.597 | 0.469 | 0.5 | 0.311 | 0.348
6 | CPSLLYSPVSS [CAMKK2_Y128_P127L] | 1.07 | 0.682 | 0.784 | 6.11 | 4.13 | 12.2 | 1.87 | 4.73 | 2.02 | 1.44 | 1.38 | 1.06 | 1.36 | 1.28 | 3.5 | 8.18
7 | CTNPQYLAAGS [RABL3_Y185_R184Q] | 0.589 | 0.721 | 0.885 | 0.505 | 0.505 | 0.47 | 0.537 | 0.487 | 0.849 | 0.724 | 0.465 | 0.602 | 0.609 | 0.778 | 0.409 | 0.424
8 | CTTIHYNFMCK [TP53_Y234_N239K_YF] | 1.68 | 2.05 | 1.4 | 0.533 | 0.387 | 0.351 | 0.476 | 0.403 | 0.816 | 0.659 | 0.418 | 0.562 | 0.489 | 0.631 | 0.413 | 0.407
9 | CTTIYYNYMCN [TP53_Y234_H233Y] | 3.1 | 2.23 | 3.51 | 6.93 | 4.3 | 2.86 | 8.51 | 4.95 | 1.03 | 1.54 | 12.1 | 6.37 | 9.96 | 5.1 | 6.51 | 7.86
10 | CVRTIYTIDGS [DCLK2_Y124_G119C] | 0.529 | 0.432 | 0.702 | 0.683 | 0.628 | 0.505 | 1.32 | 0.746 | 1.06 | 0.891 | 0.447 | 0.799 | 1 | 0.807 | 1.97 | 0.481
11 | DAICFYRMENA [NPHS2_Y195_YF] | 0.56 | 0.805 | 0.785 | 0.624 | 0.544 | 0.592 | 0.726 | 0.645 | 1.47 | 1.14 | 0.624 | 0.914 | 0.85 | 1.19 | 2.96 | 0.482

Continued, in another order:

Row | SH2 binding enrichment (c-Src SH2) | SH2 binding enrichment (SHP2-C SH2) | SH2 binding enrichment (Grb2 SH2) | Sequence | phosphorylation enrichment (Hck) | phosphorylation enrichment (EPHB2) | phosphorylation enrichment (Fer (mouse)) | phosphorylation enrichment (Fyn) | phosphorylation enrichment (EPHB1) | phosphorylation enrichment (Fes) | phosphorylation enrichment (AncSZ) | phosphorylation enrichment (FGFR1) | phosphorylation enrichment (c-Abl (mouse)) | phosphorylation enrichment (FGFR3) | phosphorylation enrichment (Jak2) | phosphorylation enrichment (c-Src) | phosphorylation enrichment (MERTK)
12 | 0.6 | 0.805 | 0.882 | CDYKKYGKGLR [ZNF445_Y433_Y428C] | 0.349 | 0.362 | 0.318 | 0.364 | 0.284 | 0.576 | 0.565 | 0.404 | 0.525 | 0.445 | 0.563 | 0.299 | 0.335
13 | 2.09 | 1.27 | 1.41 | CNTIHYNFMCN [TP53_Y234_T230N_YF] | 0.531 | 0.4 | 0.483 | 0.419 | 0.438 | 0.822 | 0.787 | 0.513 | 0.601 | 0.515 | 0.636 | 0.498 | 0.357
14 | 2.05 | 1.59 | 1.57 | CTSIHYNFMCN [TP53_Y234_T231S_YF] | 0.473 | 0.502 | 0.519 | 0.516 | 0.54 | 0.918 | 0.848 | 0.488 | 0.694 | 0.571 | 1 | 0.447 | 0.366
15 | 0.837 | 0.889 | 1.22 | CTTIHCNFMCN [TP53_Y234_Y234C_YF] | 0.446 | 0.546 | 0.454 | 0.419 | 0.67 | 0.869 | 0.782 | 0.45 | 0.629 | 0.574 | 0.862 | 0.441 | 0.441
16 | 1.72 | 2.05 | 1.83 | CTTIHFNYMCN [TP53_Y234_Y234F] | 0.427 | 0.501 | 0.572 | 0.432 | 0.488 | 0.74 | 0.68 | 0.534 | 0.458 | 0.553 | 0.628 | 0.519 | 0.397
17 | 0.531 | 0.823 | 0.665 | DAANNYARGHF [TUBA3E_Y103_S101N_YF] | 0.426 | 0.626 | 0.431 | 0.425 | 0.382 | 0.652 | 0.698 | 0.422 | 1.06 | 0.403 | 0.391 | 0.468 | 0.544
